PMC4552549

Target: TβRII (TGF-β1 receptor) on PBMC (human (endogenous in PBMC)) (UniProt P37173)
Chain of UniProt P37173 (P37173 23-567): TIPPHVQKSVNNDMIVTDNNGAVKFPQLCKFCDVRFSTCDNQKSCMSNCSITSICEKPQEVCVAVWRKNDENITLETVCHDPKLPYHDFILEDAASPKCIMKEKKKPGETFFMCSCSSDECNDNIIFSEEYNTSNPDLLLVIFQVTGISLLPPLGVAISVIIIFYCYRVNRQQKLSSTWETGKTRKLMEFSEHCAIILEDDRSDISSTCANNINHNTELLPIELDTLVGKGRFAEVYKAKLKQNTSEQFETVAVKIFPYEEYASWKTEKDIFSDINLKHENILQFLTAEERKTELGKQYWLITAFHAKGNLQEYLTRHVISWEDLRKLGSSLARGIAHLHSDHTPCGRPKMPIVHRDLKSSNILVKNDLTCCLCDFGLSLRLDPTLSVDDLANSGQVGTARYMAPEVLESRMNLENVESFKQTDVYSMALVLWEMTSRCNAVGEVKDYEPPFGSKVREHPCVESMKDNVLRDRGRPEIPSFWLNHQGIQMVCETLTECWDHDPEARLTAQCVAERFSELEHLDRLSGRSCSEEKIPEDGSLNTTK

percentage of Tregs (CD4+CD25+Foxp3+, flow cytometry) in PBMC after the peptide at 1 μM, 10 μM and 100 μM (5.43%, 6.67% and 5.90%; untreated 4.94%): 6.67%
Binder: ACESPLKRQCGGGS [pm26TGF-β1 synthetic peptide]
